Reference: the emibetuzumab library of Makowski et al. (2022)

B1: VH:VL chains; a variant is named by its letters at X, in order (parent)
chain 1: QVQLVQSGAEVKKPGASVKVSCKASGYTFTDYXMHWVRQAPGQGLEWMGXVNPNXXXTTYNQKFEGRVTMTTDTSTSTAYMELRSLRSDDTAVYYCARXNXLDXWGQGTTVTVSS
chain 2: DIQMTQSPSSLSASVGDRVTITCSVSSSVSSIYLHWYQQKPGKAPKLLIYSTSNLASGVPSRFSGSGSGTDFTLTISSLQPEDFATYYCQVYSGYPLTFGGGTKVEIK

Variants of: B1
Assay: yeast display scFab, FACS + sequencing
Summary of the method: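 Heavy-chain CDR mutant scFab yeast surface library, FACS-sorted after labelling with biotinylated ovalbumin (260 μg/mL in PBSB, 3 h, room temperature) or soluble membrane proteins (130 μg/mL, 20 min on ice), plus anti-Myc. Gates collected the top 25% and bottom 10% of binders, and samples from two replicates were deep sequenced. Non-specific binding call: a sequence was positive if found in ≥3 of 4 positive samples (membrane protein and ovalbumin pooled) and no negatives, and negative by the converse rule.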

Variant | non-specific binding call
SKTKSDVD | no binding
SKTKSDVA | no binding
SKTKSDVV | no binding
YRAGAASD | binds
SKTKSDWA | no binding
YRAESAAA | binds
ARAASAGA | binds
DKTGDAAV | no binding
VKTGGDVF | no binding
VKTGGDVA | no binding
VKTGGDVY | no binding
SKTKSDGS | no binding
SKTKSDGA | no binding
SKTKSDGV | no binding
DKTKSDWV | no binding
SKTRAFVA | binds
AKTGDSSD | no binding
DKTGNDVA | no binding
DKTGNDVV | no binding
YKTGDSVD | no binding
YRAAGSWS | binds
FKTESAAV | binds
YRAEGAWS | binds
YKTRDDAV | no binding

Variant | non-specific binding call
YKTGSSWD | binds
YKTRSAVA | binds
FKTKSAGD | no binding
VRAGAAGS | no binding
VRAGAAGV | binds
YKRRSASA | binds
YKTRSAWS chain 1 M48I | binds
VRAGADVD | no binding
VRAGADVA | no binding
YKTGGSGA | binds
VKTGGDGD | no binding
VKRRSSLA | binds
YRAAGAGS | binds
YKTKGSSY | binds
ARAETDVY | no binding
YKTKSDGV | no binding
YKTGGALY | no binding
VRAGADSV | no binding
FKRRSASV | binds
SKTRGAGV | binds
AKTRDDVA | no binding
ARAAGDWV | no binding
FKRRSSGD | binds
YKRRNSGD | binds

Variant | non-specific binding call
YKTRGSLD | binds
VKTGGSWV | no binding
VKTGGSWA | no binding
YRAEGSSS | binds
YRAAGDVA | no binding
SKTRGAWD | binds
VRAGADAV | no binding
FRAEGSVA | binds
FKTGDAWS | binds
AKTRDFVA | binds
SKRRSVGA | binds
YKTRGSAD | binds
YKTRGSAA | binds
DRAETDVY | no binding
YKTGDDGV | no binding
YKTGGDGV | no binding
YKTKSDWV | no binding
YKTGGAGV | binds
FKTRDFAY | binds
VKTGGAVV | no binding
SKTKSDAV | no binding
YKTGGASS | binds
YKTGNDVA | no binding
DKTGDDGS | no binding

Variant | non-specific binding call
AKTKSDWV | no binding
YKTGDSWV | no binding
YKTRGAGD chain 1 Q43R | no binding
VRAETDVY | no binding
VKTKGVVD | binds
FKTEGFVS | binds
FKRRSVGA | binds
YKTRSSAD | binds
YRAGAAVA | binds
FRAEGSLD | binds
AKTKSDGV | no binding
FKTKSDAV | no binding
VRAEASVV | binds
FKTAGSAV chain 1 R67H | binds
FKRRSFGS | binds
ARAAGDVF | no binding
YKTRGFGA | binds
AKTKSDVA | no binding
VKRRSVGA | binds
VRAEGSVA | binds
SKTKSSSA | no binding
YRAEGALD | binds
YRAEGYVV | binds
VRAGADGV | no binding

Variant | non-specific binding call
DKTGDDVF | no binding
YRAAGSGA | binds
SKTKSSGA | no binding
YRAETDVA | no binding
YRAESSGV | binds
VKTGGSLD | no binding
AKTGNDVA | no binding
VKTGGAGA | no binding
YKRRSSVF | binds
SKTKSSAS | no binding
VRAEGSSV | no binding
FKTKDSVV | binds
YMAEGSGA | binds
FKTKNYVV | binds
VKTGGAWY | no binding
FKTKNYAD | binds
FKTGGAAV | binds
DKTGDSAD | no binding
YKTRGAVS | binds
YRAETDGV | no binding
YKTESYWY | binds
DKTKGDWV | no binding
